Experimental findings from doi:10.1101/2022.10.20.22281069 (medRxiv, 2022) are described below.

The target of this assay is PCNA-WT (Proliferating Cell Nuclear Antigen, wild type) (human, UniProt P12004 1-261). Nature of the assay: ITC.
Chain of PCNA-WT (Proliferating Cell Nuclear Antigen, wild type) (P12004 whole entry): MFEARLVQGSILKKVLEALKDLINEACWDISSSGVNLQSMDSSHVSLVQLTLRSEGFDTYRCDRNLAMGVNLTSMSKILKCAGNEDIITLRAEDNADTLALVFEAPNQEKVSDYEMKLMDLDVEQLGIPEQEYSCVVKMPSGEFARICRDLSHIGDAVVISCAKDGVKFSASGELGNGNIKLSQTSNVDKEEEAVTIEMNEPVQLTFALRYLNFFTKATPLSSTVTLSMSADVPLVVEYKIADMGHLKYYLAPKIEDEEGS
Take STQGRLDDFFKVTGSL [FEN1 PIP-box peptide]: the binding result is reported as “binds”.

For DKSGMKSIDTFFGVKNKKKIGKV [RNaseH2B PIP-box peptide], the binding result is “binds”.

On to KANRQVSITGFFQRK [pol δ p66 PIP-box peptide], for which the binding result is on record as “binds”.
